Reference: article PMC2721272 (Journal of molecular biology, 2009)

Target: the molecule itself
Assay: crystal structure

B1: Marasmius oreades agglutinin (natural protein, UniProt Q8X123 1-293, looked up)
chain: MSLRRGIYHIENAGVPSAIDLKDGSSSDGTPIVGWQFTPDTINWHQLWLAEPIPNVADTFTLCNLFSGTYMDLYNGSSEAGTAVNGWQGTAFTTNPHQLWTIKKSSDGTSYKIQNYGSKTFVDLVNGDSSDGAKIAGWTGTWDEGNPHQKWYFNRMSVSSAEAQAAIARNPHIHGTYRGYILDGEYLVLPNATFTQIWKDSGLPGSKWREQIYDCDDFAIAMKAAVGKWGADSWKANGFAIFCGVMLGVNKAGDAAHAYNFTLTKDHADIVFFEPQNGGYLNDIGYDSYMAFY
modifications: side chain of Cys215 oxidized in about 50% of the molecules in the crystal
  stoichiometry N: 2
